In patent publication US20240376224A1 (University of California, published 2024):

B1: CL03 Fab (Fab, V domains shown)
VH: EVQLVESGGGLVQPGGSLRLSCAASGFNFSSYSIHWVRQAPGKGLEWVASIYPYSGSTYYADSVKGRFTISADTSKNTAYLQMNSLRAEDTAVYYCARQSHSYYSHTWWVSYGMDYWGQGTLVTVSS
VL: DIQMTQSPSSLSASVGDRVTITCRASQSVSSAVAWYQQKPGKAPKLLIYSASSLYSGVPSRFSGSRSGTDFTLTISSLQPEDFATYYCQQSGQRPITFGQGTKVEIKR
notes: also called Fab CL03
B2: IgG 4A06 (antibody, V domains shown)
VH: EVQLVESGGGLVQPGGSLRLSCAASGFNLSYYYIHWVRQAPGKGLEWVASIYSSSSYTSYADSVKGRFTISADTSKNTAYLQMNSLRAEDTAVYYCARAYYGFDYWGQGTLVTVSS
VL: DIQMTQSPSSLSASVGDRVTITCRASQSVSSAVAWYQQKPGKAPKLLIYSASSLYSGVPSRFSGSRSGTDFTLTISSLQPEDFATYYCQQSYYYYPITFGQGTKVEIK

Legend:
[1] = target: T1, NTF immobilized via the N-termini (human, UniProt Q9H5V8 30-367, limits assumed); assay: multipoint BLI (Octet), His-NTF on a Ni-NTA biosensor, CL03 Fab at 100, 50, 25, 12.5, 6.25 nM
T1 sequence: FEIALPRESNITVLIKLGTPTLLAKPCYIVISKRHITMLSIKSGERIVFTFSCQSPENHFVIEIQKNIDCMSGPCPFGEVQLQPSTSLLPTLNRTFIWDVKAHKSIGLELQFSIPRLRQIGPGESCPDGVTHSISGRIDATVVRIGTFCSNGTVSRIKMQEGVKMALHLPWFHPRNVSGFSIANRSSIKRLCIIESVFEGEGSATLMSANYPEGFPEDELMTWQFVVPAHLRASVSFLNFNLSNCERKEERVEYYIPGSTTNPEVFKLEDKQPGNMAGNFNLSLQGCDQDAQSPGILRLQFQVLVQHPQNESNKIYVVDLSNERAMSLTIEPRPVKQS
Protocol: (§1) BLI experiments were performed using an Octet RED384 instrument (ForteBio). Biotinylated proteins were immobilized on a streptavidin (SA) biosensor and His-tagged proteins were immobilized on a Ni-NTA biosensor. Different concentrations of analyte in PBS pH 7.4+0.05% Tween-20+0.2% BSA (PBSTB) were used as analyte. Affinities (KDS) were calculated from a global fit (1:1) of the data using the Octet RED384 software.
(§2) To investigate the binding mechanism of CL03, the binding of CL03 to different CDCP1 antigens was measured by BLI using standard methods. In instances when the C-termini of the NTF was immobilized either via an Fc domain or directly to the biosensor surface, there was no binding of CL03 (FIG. 6A-FIG. 6B). In instances when the NTF was immobilized via the N-termini, CL03 bound NTF at similar affinity to the full c-CDCP1 antigen (FIG. 6B-FIG. 6C). Additionally, it was observed that CL03 recognized an uncleaved CDCP1 variant where a 16-amino acid linker was inserted between CUB1 and CUB2 at the R368/K369 proteolysis site (FIG. 6D).

[2] = target: T2, c-CDCP1 (Cut 3) ectodomain (human, UniProt Q9H5V8 30-369; Q9H5V8 370-667); assay: multipoint BLI (Octet), c-CDCP1 (Cut 3) held by its His-tag on a Ni-NTA biosensor, CL03 Fab at 100, 50, 25, 12.5, 6.25 nM
T2 construct: Made by co-transfection of NTF and CTF plasmids, purified by Ni-NTA (tag not described); also called cCDCP1 ECD cut 3
T2 sequence 1: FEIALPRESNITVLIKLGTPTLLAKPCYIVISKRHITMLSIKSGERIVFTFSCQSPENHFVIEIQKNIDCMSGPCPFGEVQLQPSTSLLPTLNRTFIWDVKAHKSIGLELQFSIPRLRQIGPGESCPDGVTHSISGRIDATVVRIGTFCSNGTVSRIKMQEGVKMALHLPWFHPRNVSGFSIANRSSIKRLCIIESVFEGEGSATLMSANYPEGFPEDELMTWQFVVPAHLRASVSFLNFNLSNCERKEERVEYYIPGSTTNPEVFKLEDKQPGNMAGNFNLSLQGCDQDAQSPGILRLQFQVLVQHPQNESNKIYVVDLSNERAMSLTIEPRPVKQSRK
T2 sequence 2: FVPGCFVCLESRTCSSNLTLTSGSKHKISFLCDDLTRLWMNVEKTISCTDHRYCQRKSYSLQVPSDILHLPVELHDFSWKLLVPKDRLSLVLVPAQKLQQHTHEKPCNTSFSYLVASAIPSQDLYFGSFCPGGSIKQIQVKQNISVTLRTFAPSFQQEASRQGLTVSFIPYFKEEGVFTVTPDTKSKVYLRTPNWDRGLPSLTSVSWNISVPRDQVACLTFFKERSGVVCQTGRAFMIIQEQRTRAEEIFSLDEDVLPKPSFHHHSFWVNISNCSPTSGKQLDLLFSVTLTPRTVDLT
Protocol: as §1, §2

c-CDCP1-Fc (Cut 3) = target: T3, c-CDCP1-Fc (Cut 3) (human, UniProt Q9H5V8 30-369; Q9H5V8 370-667); assay: BLI (Octet), table of in vitro binding affinities
T3 construct: Co-transfection of NTF and CTF-Fc plasmids; not shown: Fc domain
T3 sequence 1: T2 sequence 1
T3 sequence 2: T2 sequence 2
Protocol: as §1

c-CDCP1-Fc (Cut 1) = target: T4, c-CDCP1-Fc (Cut 1) (human, UniProt Q9H5V8 30-365; Q9H5V8 366-667); assay: BLI (Octet), table of in vitro binding affinities
T4 construct: Co-transfection of NTF and CTF-Fc plasmids; not shown: Fc domain
T4 sequence 1: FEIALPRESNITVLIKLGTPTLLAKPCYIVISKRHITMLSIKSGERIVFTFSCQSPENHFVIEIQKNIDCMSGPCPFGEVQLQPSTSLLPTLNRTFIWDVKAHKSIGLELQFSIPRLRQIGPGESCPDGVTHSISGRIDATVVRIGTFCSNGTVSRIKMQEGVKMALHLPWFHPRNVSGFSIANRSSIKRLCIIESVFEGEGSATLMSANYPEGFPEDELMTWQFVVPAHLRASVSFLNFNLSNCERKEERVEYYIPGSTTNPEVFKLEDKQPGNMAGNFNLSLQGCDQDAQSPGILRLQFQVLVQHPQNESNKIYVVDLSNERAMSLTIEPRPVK
T4 sequence 2: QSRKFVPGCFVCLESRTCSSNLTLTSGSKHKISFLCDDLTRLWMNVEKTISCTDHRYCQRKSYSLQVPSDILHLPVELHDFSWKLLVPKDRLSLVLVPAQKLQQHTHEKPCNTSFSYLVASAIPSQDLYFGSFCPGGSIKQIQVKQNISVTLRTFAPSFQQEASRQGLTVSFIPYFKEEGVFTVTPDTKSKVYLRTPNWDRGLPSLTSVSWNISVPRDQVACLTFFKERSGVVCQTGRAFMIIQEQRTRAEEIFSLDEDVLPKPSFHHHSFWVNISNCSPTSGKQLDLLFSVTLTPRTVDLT
Protocol: as §1

c-CDCP1-Fc (Cut 2) = target: T5, c-CDCP1-Fc (Cut 2) (human, UniProt Q9H5V8 30-368; Q9H5V8 369-667); assay: BLI (Octet), table of in vitro binding affinities
T5 construct: Co-transfection of NTF and CTF-Fc plasmids; not shown: Fc domain
T5 sequence 1: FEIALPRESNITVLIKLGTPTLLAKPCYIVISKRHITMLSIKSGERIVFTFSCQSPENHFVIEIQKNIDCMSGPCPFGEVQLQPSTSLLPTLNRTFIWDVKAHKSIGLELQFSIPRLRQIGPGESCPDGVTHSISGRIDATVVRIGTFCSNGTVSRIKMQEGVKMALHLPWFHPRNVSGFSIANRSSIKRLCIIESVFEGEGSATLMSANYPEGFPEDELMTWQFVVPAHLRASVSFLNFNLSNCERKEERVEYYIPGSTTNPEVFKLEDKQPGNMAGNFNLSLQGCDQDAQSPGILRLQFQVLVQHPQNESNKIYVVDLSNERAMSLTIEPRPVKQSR
T5 sequence 2: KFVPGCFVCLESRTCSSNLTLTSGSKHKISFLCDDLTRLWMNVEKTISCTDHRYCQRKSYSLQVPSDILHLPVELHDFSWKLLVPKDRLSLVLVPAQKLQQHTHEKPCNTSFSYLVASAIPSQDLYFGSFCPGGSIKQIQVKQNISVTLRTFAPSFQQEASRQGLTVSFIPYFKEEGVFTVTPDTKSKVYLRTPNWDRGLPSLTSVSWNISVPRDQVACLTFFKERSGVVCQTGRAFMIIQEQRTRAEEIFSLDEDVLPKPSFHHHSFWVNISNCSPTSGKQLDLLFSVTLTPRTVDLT
Protocol: as §1

[3] = target: T6, c-CDCP1 (Cut 3) on HEK293T cells (human, UniProt Q9H5V8 30-369; Q9H5V8 370-836); assay: flow cytometry, dose response on HEK293T-cCDCP1 cells (CDCP1 WT)
T6 construct: T2A remnants not described; also called HEK293T c-CDCP1
T6 sequence 1: T2 sequence 1
T6 sequence 2: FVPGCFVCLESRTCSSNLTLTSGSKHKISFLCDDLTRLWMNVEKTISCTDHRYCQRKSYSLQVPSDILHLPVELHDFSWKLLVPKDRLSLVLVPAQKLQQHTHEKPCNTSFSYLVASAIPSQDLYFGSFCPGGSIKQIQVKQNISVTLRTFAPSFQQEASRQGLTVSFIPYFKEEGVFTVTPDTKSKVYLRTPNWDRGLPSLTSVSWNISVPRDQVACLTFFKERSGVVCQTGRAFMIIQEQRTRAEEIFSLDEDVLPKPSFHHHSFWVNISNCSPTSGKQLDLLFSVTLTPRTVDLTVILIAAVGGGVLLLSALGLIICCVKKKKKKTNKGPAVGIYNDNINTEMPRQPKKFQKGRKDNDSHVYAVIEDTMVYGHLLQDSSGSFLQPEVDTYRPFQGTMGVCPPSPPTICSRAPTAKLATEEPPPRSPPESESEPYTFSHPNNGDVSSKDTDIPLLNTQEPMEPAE

[4] = target: T7, full-length (uncleaved) human CDCP1 on cells (human, UniProt Q9H5V8 30-836); assay: flow cytometry, dose response on HEK293T-flCDCP1 cells (CDCP1 WT)
T7 construct: HPAC cells express mostly uncleaved CDCP1 (endogenous); also called fl-CDCP1; uncleaved CDCP1 on HPAC cells
T7 sequence: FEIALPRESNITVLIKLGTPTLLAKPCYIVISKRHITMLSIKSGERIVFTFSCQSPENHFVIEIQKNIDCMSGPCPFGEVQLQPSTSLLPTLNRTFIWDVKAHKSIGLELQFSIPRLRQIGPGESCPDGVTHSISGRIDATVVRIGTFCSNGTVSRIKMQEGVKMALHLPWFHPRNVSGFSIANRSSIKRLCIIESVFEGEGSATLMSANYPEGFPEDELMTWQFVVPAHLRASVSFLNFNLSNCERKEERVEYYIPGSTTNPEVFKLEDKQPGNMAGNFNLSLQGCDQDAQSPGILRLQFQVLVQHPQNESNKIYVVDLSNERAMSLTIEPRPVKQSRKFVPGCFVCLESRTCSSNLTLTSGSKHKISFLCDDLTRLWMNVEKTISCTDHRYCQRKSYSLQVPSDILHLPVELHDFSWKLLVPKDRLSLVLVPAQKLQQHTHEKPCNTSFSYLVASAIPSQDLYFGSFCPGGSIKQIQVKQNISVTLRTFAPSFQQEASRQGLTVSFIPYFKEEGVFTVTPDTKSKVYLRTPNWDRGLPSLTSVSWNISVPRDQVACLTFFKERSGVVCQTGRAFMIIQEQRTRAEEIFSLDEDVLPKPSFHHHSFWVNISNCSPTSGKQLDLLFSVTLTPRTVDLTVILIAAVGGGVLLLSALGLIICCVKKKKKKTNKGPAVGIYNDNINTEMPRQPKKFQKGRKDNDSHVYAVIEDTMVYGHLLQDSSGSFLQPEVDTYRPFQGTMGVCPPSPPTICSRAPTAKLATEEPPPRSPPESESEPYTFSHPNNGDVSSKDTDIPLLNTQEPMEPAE

Binder	Kd [1]	Kd [2]	Kd (c-CDCP1-Fc (Cut 3))	Kd (c-CDCP1-Fc (Cut 1))	koff (c-CDCP1-Fc (Cut 1))	kon (c-CDCP1-Fc (Cut 1))	Kd (c-CDCP1-Fc (Cut 2))	EC50 (read off the curve) [3]	EC50 (read off the curve) [4]
B1	10.5 nM	9.74 nM	3.59 nM	2.26 nM	0.000648 s⁻¹	288000 M⁻¹ s⁻¹	3.91 nM		
B2								~0.4 nM	~1 nM
